According to patent publication US20070065882:

Molecular target: PKCβII in mouse brain (UniProt P68404)
Sequence (P68404 other isoform, or with tags, fused parts or gaps): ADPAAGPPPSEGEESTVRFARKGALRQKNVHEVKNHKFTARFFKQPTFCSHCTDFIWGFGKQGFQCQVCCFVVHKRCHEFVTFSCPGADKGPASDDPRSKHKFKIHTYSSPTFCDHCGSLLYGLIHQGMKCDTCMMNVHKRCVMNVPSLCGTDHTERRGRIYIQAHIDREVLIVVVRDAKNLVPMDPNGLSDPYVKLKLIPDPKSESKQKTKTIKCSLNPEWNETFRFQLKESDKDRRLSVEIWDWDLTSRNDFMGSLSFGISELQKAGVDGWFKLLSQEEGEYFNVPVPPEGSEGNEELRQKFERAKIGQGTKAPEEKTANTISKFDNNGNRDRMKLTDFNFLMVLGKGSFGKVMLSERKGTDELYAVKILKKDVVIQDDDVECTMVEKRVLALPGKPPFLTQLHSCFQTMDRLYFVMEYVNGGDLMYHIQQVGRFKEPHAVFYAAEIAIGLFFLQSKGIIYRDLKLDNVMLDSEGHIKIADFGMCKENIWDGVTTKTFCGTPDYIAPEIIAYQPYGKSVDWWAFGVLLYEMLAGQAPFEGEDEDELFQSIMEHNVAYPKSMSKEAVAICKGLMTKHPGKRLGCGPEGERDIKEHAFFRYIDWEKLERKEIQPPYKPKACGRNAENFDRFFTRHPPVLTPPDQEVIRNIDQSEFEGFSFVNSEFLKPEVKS

In the case of “recombinant human AChE-R, 'readthrough' variant of acetylcholinesterase”, the “PKC activity in brain homogenates (PKC assay kit, Upstate Biotechnology)” value is reported as “Note the elevation of PKC activity in the different brain regions in the AChE-R transgenics as compared to FVB/N controls”.
